How the values were obtained:
HLA-A*02:01 [1] = test: IEDB peptide-MHC binding, purified MHC/competitive/fluorescence; ≥ and ≤ were set here for values at or beyond the usual limits of such assays
HLA-B*15:01 = test: IEDB peptide-MHC binding, purified MHC/direct/fluorescence; filed as Kd, often an IC50 or EC50 that approximates it; ≥ and ≤ were set here for values at or beyond the usual limits of such assays
HLA-B*07:02 [2] = test: IEDB peptide-MHC binding, purified MHC/competitive/radioactivity; filed as Kd, often an IC50 or EC50 that approximates it; ≥ and ≤ were set here for values at or beyond the usual limits of such assays
HLA-A*01:01 = test: IEDB peptide-MHC binding, purified MHC/direct/fluorescence; filed as Kd, often an IC50 or EC50 that approximates it; ≥ and ≤ were set here for values at or beyond the usual limits of such assays
HLA-A*03:01 = test: as above
HLA-A*11:01 = test: as above
HLA-A*69:01 = test: as above
HLA-A*02:01 [3] = test: as above
HLA-B*51:01 = test: IEDB peptide-MHC binding, purified MHC/competitive/radioactivity; filed as Kd, often an IC50 or EC50 that approximates it; ≥ and ≤ were set here for values at or beyond the usual limits of such assays
HLA-B*53:01 = test: as above
HLA-B*35:01 = test: as above
HLA-B*07:02 [4] = test: IEDB peptide-MHC binding, purified MHC/direct/fluorescence; filed as Kd, often an IC50 or EC50 that approximates it; ≥ and ≤ were set here for values at or beyond the usual limits of such assays
HLA-A*02:02 = test: IEDB peptide-MHC binding, purified MHC/competitive/radioactivity; filed as Kd, often an IC50 or EC50 that approximates it; ≥ and ≤ were set here for values at or beyond the usual limits of such assays
HLA-A*02:03 = test: as above
HLA-A*02:06 = test: as above
HLA-B*40:01 = test: IEDB peptide-MHC binding, purified MHC/direct/fluorescence; filed as Kd, often an IC50 or EC50 that approximates it; ≥ and ≤ were set here for values at or beyond the usual limits of such assays
[5] = source organism: Vaccinia virus
[6] = source organism: Dengue virus 3 Martinique/1243/1999
[7] = source organism: Vaccinia virus Copenhagen
[8] = source organism: Brucella abortus 2308
[9] = source organism: Dengue virus 2 Jamaica/1409/1983
[10] = source organism: Dengue virus 4 Philippines/H241/1956
[11] = source organism: Bacillus cereus
[12] = source organism: Zaire ebolavirus
[13] = source organism: Dengue virus 1 Brazil/97-11/1997
[14] = source organism: Escherichia coli
[15] = source organism: Rickettsia sibirica
[16] = source organism: Francisella tularensis subsp. holarctica LVS
[17] = source organism: Dengue virus 4 Dominica/814669/1981
[18] = source organism: Vaccinia virus WR
[19] = source organism: Lymphocytic choriomeningitis virus (strain Armstrong)
[20] = source organism: Entamoeba histolytica HM-1:IMSS
[21] = source organism: Vibrio cholerae

AFIHIPGDT
IC50 (HLA-A*02:01 [1]; source organism: Variola virus): 24800 nM

ALSTGAGAY
Kd (HLA-B*15:01; source organism: Mycobacterium tuberculosis F11): 436 nM

CIDILRSLE
IC50 (HLA-A*02:01 [1]; [5]): 51000 nM

CPTQGEAVL
Kd (HLA-B*07:02 [2]; [6]): 53.7 nM

CSDDGFWSK
Kd (HLA-A*01:01; source organism: Homo sapiens): 423 nM
Kd (HLA-A*03:01; source organism: Homo sapiens): 11000 nM
Kd (HLA-A*11:01; source organism: Homo sapiens): 138 nM

CSSISIKLT
IC50 (HLA-A*02:01 [1]; [7]): ≥ 729000 nM

DLNKVIQFL
Kd (HLA-A*69:01; source organism: Haemophilus influenzae): 352 nM

DLSLGNQEL
Kd (HLA-A*02:01 [3]; [8]): ≥ 10000 nM
Kd (HLA-A*69:01; [8]): ≥ 20000 nM

DSLSSQMTS
IC50 (HLA-A*02:01 [1]; [7]): ≥ 240000 nM

FLPKAAYAL
Kd (HLA-A*02:01 [3]; source organism: Mammarenavirus juninense): 2.8 nM

FPQSNAPIMD
Kd (HLA-B*51:01; [9]): 4160 nM
Kd (HLA-B*53:01; [9]): 113 nM

FPQSNSPIED
Kd (HLA-B*35:01; [10]): 630 nM
Kd (HLA-B*51:01; [10]): ≥ 37500 nM
Kd (HLA-B*53:01; [10]): 1830 nM

FPYSIPATL
Kd (HLA-B*35:01; [6]): 1.99 nM
Kd (HLA-B*51:01; [6]): 89 nM
Kd (HLA-B*53:01; [6]): 2.15 nM

GIYCTVPFI
Kd (HLA-A*02:01 [3]; [11]): 111 nM
Kd (HLA-A*69:01; [11]): 388 nM

GLRAIKSVL
Kd (HLA-A*02:01 [3]; source organism: Homo sapiens): 5660 nM

GMNAPDDLV
IC50 (HLA-A*02:01 [1]; [12]): 6300 nM

GPRQWRWPL
Kd (HLA-B*07:02 [4]; source organism: Mycobacterium tuberculosis str. Haarlem): 14.2 nM

GTHPTTTYK
Kd (HLA-A*03:01; source organism: Mycobacterium tuberculosis variant bovis): 780 nM

GTTFAEGVV
IC50 (HLA-A*02:01 [1]; [12]): 31100 nM

IPERSWNSGY
Kd (HLA-B*35:01; [13]): 155 nM

IPKIYGGPIS
Kd (HLA-B*07:02 [2]; source organism: Dengue virus 1 Singapore/S275/1990): 508 nM

ISEPMFHQG
Kd (HLA-A*01:01; [14]): 7130 nM
Kd (HLA-A*69:01; [14]): 1690 nM

KLYFWIPWS
Kd (HLA-A*02:01 [3]; [15]): 197 nM
Kd (HLA-A*69:01; [15]): ≥ 20000 nM

KLYGLSQGY
Kd (HLA-A*03:01; [16]): 4.7 nM
Kd (HLA-A*11:01; [16]): 210 nM

LATGPILTLW
Kd (HLA-B*53:01; [17]): 15.1 nM

LATLNTLITL
Kd (HLA-A*02:02; [18]): 139 nM
Kd (HLA-A*02:03; [18]): 338 nM
Kd (HLA-A*02:06; [18]): 323 nM

LEEEGVTPL
Kd (HLA-B*40:01; source organism: Corynebacterium diphtheriae): 43.4 nM

LEKVQRQIQ
IC50 (HLA-A*02:01 [1]; [12]): ≥ 446000 nM

LGVATAHGS
IC50 (HLA-A*02:01 [1]; [12]): ≥ 277000 nM

LIGLSSRATW
Kd (HLA-B*53:01; [10]): 378 nM

LLENKSLTIL
Kd (HLA-A*02:02; [18]): 185 nM
Kd (HLA-A*02:03; [18]): 541 nM
Kd (HLA-A*02:06; [18]): 7430 nM

LLFEVEQEI
Kd (HLA-A*02:01 [3]; source organism: Influenza A virus (A/Saudi Arabia/7971/2000(H1N1))): 15.7 nM

LPIRYQTTA
Kd (HLA-B*51:01; [6]): 15900 nM

LPLPWTAGAD
Kd (HLA-B*35:01; [17]): 8060 nM
Kd (HLA-B*51:01; [17]): ≥ 69600 nM

LPTYLSSRAK
Kd (HLA-B*35:01; [10]): 15100 nM
Kd (HLA-B*51:01; [10]): ≥ 49800 nM

LPVLLGSFGC
Kd (HLA-B*35:01; [13]): 5940 nM
Kd (HLA-B*51:01; [13]): ≥ 43500 nM
Kd (HLA-B*53:01; [13]): 117 nM

LPVWLSYKVA
Kd (HLA-B*35:01; [13]): 864 nM

LSAEELMSL
Kd (HLA-A*02:02; [19]): 64.5 nM
Kd (HLA-A*02:03; [19]): 705 nM
Kd (HLA-A*02:06; [19]): 65.9 nM

MAICSAVPT
Kd (HLA-B*35:01; [10]): 543 nM

MIGNYFSGVL
Kd (HLA-A*02:02; [18]): 712 nM
Kd (HLA-A*02:03; [18]): 761 nM
Kd (HLA-A*02:06; [18]): 1310 nM

NISLPLYTV
Kd (HLA-A*02:01 [3]; [20]): 47.5 nM
Kd (HLA-A*69:01; [20]): 8.5 nM

NITPDDGLGL
Kd (HLA-A*02:02; [18]): 1910 nM
Kd (HLA-A*02:03; [18]): 1290 nM
Kd (HLA-A*02:06; [18]): 3450 nM

NPTTLIASL
Kd (HLA-B*07:02 [2]; [10]): 210 nM

NPWMEDKTH
Kd (HLA-B*35:01; [13]): 2300 nM

NTDHPLSINV
Kd (HLA-A*02:02; [18]): 388 nM
Kd (HLA-A*02:03; [18]): 583 nM
Kd (HLA-A*02:06; [18]): 1.64 nM

NTVGMSIVCI
Kd (HLA-A*02:02; [18]): 3020 nM
Kd (HLA-A*02:03; [18]): 1540 nM
Kd (HLA-A*02:06; [18]): 1210 nM

NVFISPASI
Kd (HLA-A*02:02; [18]): 202 nM
Kd (HLA-A*02:03; [18]): 0.727 nM
Kd (HLA-A*02:06; [18]): 660 nM

NVIEDITFL
Kd (HLA-A*02:02; [18]): 146 nM
Kd (HLA-A*02:03; [18]): 300 nM
Kd (HLA-A*02:06; [18]): 25.8 nM

QLANETTQA
IC50 (HLA-A*02:01 [1]; source organism: Sudan ebolavirus): 25900 nM

QLNETIYTS
IC50 (HLA-A*02:01 [1]; [12]): 2800 nM

QLQCHQIAI
Kd (HLA-A*02:01 [3]; [21]): 92 nM
Kd (HLA-A*03:01; [21]): 13200 nM
Kd (HLA-A*69:01; [21]): 5310 nM
Kd (HLA-B*07:02 [4]; [21]): 6710 nM
Kd (HLA-B*15:01; [21]): 7260 nM

RAADEPPLV
IC50 (HLA-A*02:01 [1]; [5]): 2830 nM

REAKATRPL
Kd (HLA-B*40:01; source organism: Mycobacterium tuberculosis): 80.8 nM

— the Immune Epitope Database (IEDB)
